Among the data in US20230235013A1 (MABSOLVE, published 2023) are Mean binding response values, retold here.

The test deals with T1, Histidine-tagged recombinant human FcγRI (CD64) (human, UniProt P12314 16-288).
T1 construct: bought; also called Sino Biological Cat. No. 12056-H08H
Put plainly: SPR, culture supernatant, captured His-FcγRI.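 Note: biacore T200 SPR at 25 °C, anti-His capture, supernatants of HEK293 cells expressing IgG1 Fc variants injected 1 min, reference-subtracted response read 55 s after injection start.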

B1: anti-CD20 human IgG1 L234K/L235E/G236R (antibody)
heavy: QVQLQQPGAELVKPGASVKMSCKASGYTFTSYNMHWVKQTPGRGLEWIGAIYPGNGDTSYNQKFKGKATLTADKSSSTAYMQLSSLTSEDSAVYYCARSTYYGGDWYFNVWGAGTTVTVSSASTKGPSVFPLAPSSKSTSGGTAALGCLVKDYFPEPVTVSWNSGALTSGVHTFPAVLQSSGLYSLSSVVTVPSSSLGTQTYICNVNHKPSNTKVDKKVEPKSCDKTHTCPPCPAPEKERGPSVFLFPPKPKDTLMISRTPEVTCVVVDVSHEDPEVKFNWYVDGVEVHNAKTKPREEQYNSTYRVVSVLTVLHQDWLNGKEYKCKVSNKALPAPIEKTISKAKGQPREPQVYTLPPSRDELTKNQVSLTCLVKGFYPSDIAVEWESNGQPENNYKTTPPVLDSDGSFFLYSKLTVDKSRWQQGNVFSCSVMHEALHNHYTQKSLSLSPGK
light: QIVLSQSPAILSASPGEKVTMTCRASSSVSYIHWFQQKPGSSPKPWIYATSNLASGVPVRFSGSGSGTSYSLTISRVEAEDAATYYCQQWTSNPPTFGGGTKLEIKRTVAAPSVFIFPPSDEQLKSGTASVVCLLNNFYPREAKVQWKVDNALQSGNSQESVTEQDSKDSTYSLSSTLTLSKADYEKHKVYACEVTHQGLSSPVTKSFNRGEC
notes: also called 1-79; copies: 2 + 2
On to B1, for which the Mean binding response came out at 29.9 RU.

B2: anti-CD20 human IgG1 L234K/L235K/G236R (antibody)
heavy: QVQLQQPGAELVKPGASVKMSCKASGYTFTSYNMHWVKQTPGRGLEWIGAIYPGNGDTSYNQKFKGKATLTADKSSSTAYMQLSSLTSEDSAVYYCARSTYYGGDWYFNVWGAGTTVTVSSASTKGPSVFPLAPSSKSTSGGTAALGCLVKDYFPEPVTVSWNSGALTSGVHTFPAVLQSSGLYSLSSVVTVPSSSLGTQTYICNVNHKPSNTKVDKKVEPKSCDKTHTCPPCPAPEKKRGPSVFLFPPKPKDTLMISRTPEVTCVVVDVSHEDPEVKFNWYVDGVEVHNAKTKPREEQYNSTYRVVSVLTVLHQDWLNGKEYKCKVSNKALPAPIEKTISKAKGQPREPQVYTLPPSRDELTKNQVSLTCLVKGFYPSDIAVEWESNGQPENNYKTTPPVLDSDGSFFLYSKLTVDKSRWQQGNVFSCSVMHEALHNHYTQKSLSLSPGK
light: QIVLSQSPAILSASPGEKVTMTCRASSSVSYIHWFQQKPGSSPKPWIYATSNLASGVPVRFSGSGSGTSYSLTISRVEAEDAATYYCQQWTSNPPTFGGGTKLEIKRTVAAPSVFIFPPSDEQLKSGTASVVCLLNNFYPREAKVQWKVDNALQSGNSQESVTEQDSKDSTYSLSSTLTLSKADYEKHKVYACEVTHQGLSSPVTKSFNRGEC
notes: also called 1-83; copies: 2 + 2
Consider B2, for which the Mean binding response came to 37.6 RU.

B3: anti-CD20 human IgG1 L234K/L235Q/G236R (antibody)
heavy: QVQLQQPGAELVKPGASVKMSCKASGYTFTSYNMHWVKQTPGRGLEWIGAIYPGNGDTSYNQKFKGKATLTADKSSSTAYMQLSSLTSEDSAVYYCARSTYYGGDWYFNVWGAGTTVTVSSASTKGPSVFPLAPSSKSTSGGTAALGCLVKDYFPEPVTVSWNSGALTSGVHTFPAVLQSSGLYSLSSVVTVPSSSLGTQTYICNVNHKPSNTKVDKKVEPKSCDKTHTCPPCPAPEKQRGPSVFLFPPKPKDTLMISRTPEVTCVVVDVSHEDPEVKFNWYVDGVEVHNAKTKPREEQYNSTYRVVSVLTVLHQDWLNGKEYKCKVSNKALPAPIEKTISKAKGQPREPQVYTLPPSRDELTKNQVSLTCLVKGFYPSDIAVEWESNGQPENNYKTTPPVLDSDGSFFLYSKLTVDKSRWQQGNVFSCSVMHEALHNHYTQKSLSLSPGK
light: QIVLSQSPAILSASPGEKVTMTCRASSSVSYIHWFQQKPGSSPKPWIYATSNLASGVPVRFSGSGSGTSYSLTISRVEAEDAATYYCQQWTSNPPTFGGGTKLEIKRTVAAPSVFIFPPSDEQLKSGTASVVCLLNNFYPREAKVQWKVDNALQSGNSQESVTEQDSKDSTYSLSSTLTLSKADYEKHKVYACEVTHQGLSSPVTKSFNRGEC
notes: also called 1-87; 2-22; copies: 2 + 2
For B3, the Mean binding response was 8.4 RU.

B4: anti-CD20 human IgG1 L234K/L235I/G236R (antibody)
heavy: QVQLQQPGAELVKPGASVKMSCKASGYTFTSYNMHWVKQTPGRGLEWIGAIYPGNGDTSYNQKFKGKATLTADKSSSTAYMQLSSLTSEDSAVYYCARSTYYGGDWYFNVWGAGTTVTVSSASTKGPSVFPLAPSSKSTSGGTAALGCLVKDYFPEPVTVSWNSGALTSGVHTFPAVLQSSGLYSLSSVVTVPSSSLGTQTYICNVNHKPSNTKVDKKVEPKSCDKTHTCPPCPAPEKIRGPSVFLFPPKPKDTLMISRTPEVTCVVVDVSHEDPEVKFNWYVDGVEVHNAKTKPREEQYNSTYRVVSVLTVLHQDWLNGKEYKCKVSNKALPAPIEKTISKAKGQPREPQVYTLPPSRDELTKNQVSLTCLVKGFYPSDIAVEWESNGQPENNYKTTPPVLDSDGSFFLYSKLTVDKSRWQQGNVFSCSVMHEALHNHYTQKSLSLSPGK
light: QIVLSQSPAILSASPGEKVTMTCRASSSVSYIHWFQQKPGSSPKPWIYATSNLASGVPVRFSGSGSGTSYSLTISRVEAEDAATYYCQQWTSNPPTFGGGTKLEIKRTVAAPSVFIFPPSDEQLKSGTASVVCLLNNFYPREAKVQWKVDNALQSGNSQESVTEQDSKDSTYSLSSTLTLSKADYEKHKVYACEVTHQGLSSPVTKSFNRGEC
notes: also called 1-82; copies: 2 + 2
Take B4: the Mean binding response was 30.9 RU.

B5: anti-CD20 human IgG1 L234K/L235G/G236R (antibody)
heavy: QVQLQQPGAELVKPGASVKMSCKASGYTFTSYNMHWVKQTPGRGLEWIGAIYPGNGDTSYNQKFKGKATLTADKSSSTAYMQLSSLTSEDSAVYYCARSTYYGGDWYFNVWGAGTTVTVSSASTKGPSVFPLAPSSKSTSGGTAALGCLVKDYFPEPVTVSWNSGALTSGVHTFPAVLQSSGLYSLSSVVTVPSSSLGTQTYICNVNHKPSNTKVDKKVEPKSCDKTHTCPPCPAPEKGRGPSVFLFPPKPKDTLMISRTPEVTCVVVDVSHEDPEVKFNWYVDGVEVHNAKTKPREEQYNSTYRVVSVLTVLHQDWLNGKEYKCKVSNKALPAPIEKTISKAKGQPREPQVYTLPPSRDELTKNQVSLTCLVKGFYPSDIAVEWESNGQPENNYKTTPPVLDSDGSFFLYSKLTVDKSRWQQGNVFSCSVMHEALHNHYTQKSLSLSPGK
light: QIVLSQSPAILSASPGEKVTMTCRASSSVSYIHWFQQKPGSSPKPWIYATSNLASGVPVRFSGSGSGTSYSLTISRVEAEDAATYYCQQWTSNPPTFGGGTKLEIKRTVAAPSVFIFPPSDEQLKSGTASVVCLLNNFYPREAKVQWKVDNALQSGNSQESVTEQDSKDSTYSLSSTLTLSKADYEKHKVYACEVTHQGLSSPVTKSFNRGEC
notes: also called 1-80; copies: 2 + 2
Regarding B5, the Mean binding response turned out to be 27.4 RU.

B6: anti-CD20 human IgG1 L234N/G236R (antibody)
heavy: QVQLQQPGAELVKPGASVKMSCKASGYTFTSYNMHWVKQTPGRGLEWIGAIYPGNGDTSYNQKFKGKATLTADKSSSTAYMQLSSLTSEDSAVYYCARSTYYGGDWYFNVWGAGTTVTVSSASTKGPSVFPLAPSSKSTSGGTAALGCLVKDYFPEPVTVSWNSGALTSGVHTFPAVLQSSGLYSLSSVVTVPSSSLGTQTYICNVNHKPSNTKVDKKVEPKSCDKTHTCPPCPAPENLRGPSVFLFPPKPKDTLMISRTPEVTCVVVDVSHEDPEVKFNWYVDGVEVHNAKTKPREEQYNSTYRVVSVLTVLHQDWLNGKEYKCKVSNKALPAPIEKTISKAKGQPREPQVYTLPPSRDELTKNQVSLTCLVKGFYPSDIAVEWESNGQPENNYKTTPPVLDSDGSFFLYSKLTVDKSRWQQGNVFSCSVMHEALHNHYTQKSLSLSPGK
light: QIVLSQSPAILSASPGEKVTMTCRASSSVSYIHWFQQKPGSSPKPWIYATSNLASGVPVRFSGSGSGTSYSLTISRVEAEDAATYYCQQWTSNPPTFGGGTKLEIKRTVAAPSVFIFPPSDEQLKSGTASVVCLLNNFYPREAKVQWKVDNALQSGNSQESVTEQDSKDSTYSLSSTLTLSKADYEKHKVYACEVTHQGLSSPVTKSFNRGEC
notes: also called 1-99; copies: 2 + 2
Take B6: the Mean binding response is 22.3 RU.

B7: anti-CD20 human IgG1 L234K/L235H/G236R (antibody)
heavy: QVQLQQPGAELVKPGASVKMSCKASGYTFTSYNMHWVKQTPGRGLEWIGAIYPGNGDTSYNQKFKGKATLTADKSSSTAYMQLSSLTSEDSAVYYCARSTYYGGDWYFNVWGAGTTVTVSSASTKGPSVFPLAPSSKSTSGGTAALGCLVKDYFPEPVTVSWNSGALTSGVHTFPAVLQSSGLYSLSSVVTVPSSSLGTQTYICNVNHKPSNTKVDKKVEPKSCDKTHTCPPCPAPEKHRGPSVFLFPPKPKDTLMISRTPEVTCVVVDVSHEDPEVKFNWYVDGVEVHNAKTKPREEQYNSTYRVVSVLTVLHQDWLNGKEYKCKVSNKALPAPIEKTISKAKGQPREPQVYTLPPSRDELTKNQVSLTCLVKGFYPSDIAVEWESNGQPENNYKTTPPVLDSDGSFFLYSKLTVDKSRWQQGNVFSCSVMHEALHNHYTQKSLSLSPGK
light: QIVLSQSPAILSASPGEKVTMTCRASSSVSYIHWFQQKPGSSPKPWIYATSNLASGVPVRFSGSGSGTSYSLTISRVEAEDAATYYCQQWTSNPPTFGGGTKLEIKRTVAAPSVFIFPPSDEQLKSGTASVVCLLNNFYPREAKVQWKVDNALQSGNSQESVTEQDSKDSTYSLSSTLTLSKADYEKHKVYACEVTHQGLSSPVTKSFNRGEC
notes: also called 1-81; copies: 2 + 2
As to B7, the Mean binding response stood at 25.3 RU.

B8: anti-CD20 human IgG1 L234K/L235N/G236R (antibody)
heavy: QVQLQQPGAELVKPGASVKMSCKASGYTFTSYNMHWVKQTPGRGLEWIGAIYPGNGDTSYNQKFKGKATLTADKSSSTAYMQLSSLTSEDSAVYYCARSTYYGGDWYFNVWGAGTTVTVSSASTKGPSVFPLAPSSKSTSGGTAALGCLVKDYFPEPVTVSWNSGALTSGVHTFPAVLQSSGLYSLSSVVTVPSSSLGTQTYICNVNHKPSNTKVDKKVEPKSCDKTHTCPPCPAPEKNRGPSVFLFPPKPKDTLMISRTPEVTCVVVDVSHEDPEVKFNWYVDGVEVHNAKTKPREEQYNSTYRVVSVLTVLHQDWLNGKEYKCKVSNKALPAPIEKTISKAKGQPREPQVYTLPPSRDELTKNQVSLTCLVKGFYPSDIAVEWESNGQPENNYKTTPPVLDSDGSFFLYSKLTVDKSRWQQGNVFSCSVMHEALHNHYTQKSLSLSPGK
light: QIVLSQSPAILSASPGEKVTMTCRASSSVSYIHWFQQKPGSSPKPWIYATSNLASGVPVRFSGSGSGTSYSLTISRVEAEDAATYYCQQWTSNPPTFGGGTKLEIKRTVAAPSVFIFPPSDEQLKSGTASVVCLLNNFYPREAKVQWKVDNALQSGNSQESVTEQDSKDSTYSLSSTLTLSKADYEKHKVYACEVTHQGLSSPVTKSFNRGEC
notes: also called 1-86; copies: 2 + 2
Consider B8, for which the Mean binding response is 24.8 RU.

B9: anti-CD20 human IgG1 L234N/L235A/G236R (antibody)
heavy: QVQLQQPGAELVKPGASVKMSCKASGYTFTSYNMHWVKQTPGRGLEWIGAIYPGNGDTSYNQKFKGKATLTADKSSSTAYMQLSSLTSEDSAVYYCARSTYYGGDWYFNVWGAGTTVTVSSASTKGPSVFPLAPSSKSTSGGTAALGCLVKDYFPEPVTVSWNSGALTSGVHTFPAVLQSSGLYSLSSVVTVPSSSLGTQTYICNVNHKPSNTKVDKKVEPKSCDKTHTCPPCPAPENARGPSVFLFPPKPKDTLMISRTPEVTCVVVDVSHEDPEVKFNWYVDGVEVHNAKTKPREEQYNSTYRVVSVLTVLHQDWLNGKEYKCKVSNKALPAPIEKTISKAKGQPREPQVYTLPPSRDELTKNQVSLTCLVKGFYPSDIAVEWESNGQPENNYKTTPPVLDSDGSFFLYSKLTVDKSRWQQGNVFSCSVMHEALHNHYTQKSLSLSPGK
light: QIVLSQSPAILSASPGEKVTMTCRASSSVSYIHWFQQKPGSSPKPWIYATSNLASGVPVRFSGSGSGTSYSLTISRVEAEDAATYYCQQWTSNPPTFGGGTKLEIKRTVAAPSVFIFPPSDEQLKSGTASVVCLLNNFYPREAKVQWKVDNALQSGNSQESVTEQDSKDSTYSLSSTLTLSKADYEKHKVYACEVTHQGLSSPVTKSFNRGEC
notes: also called 1-92; copies: 2 + 2
With B9, the Mean binding response came to 22.3 RU.

B10: anti-CD20 human IgG1 L234K/L235M/G236R (antibody)
heavy: QVQLQQPGAELVKPGASVKMSCKASGYTFTSYNMHWVKQTPGRGLEWIGAIYPGNGDTSYNQKFKGKATLTADKSSSTAYMQLSSLTSEDSAVYYCARSTYYGGDWYFNVWGAGTTVTVSSASTKGPSVFPLAPSSKSTSGGTAALGCLVKDYFPEPVTVSWNSGALTSGVHTFPAVLQSSGLYSLSSVVTVPSSSLGTQTYICNVNHKPSNTKVDKKVEPKSCDKTHTCPPCPAPEKMRGPSVFLFPPKPKDTLMISRTPEVTCVVVDVSHEDPEVKFNWYVDGVEVHNAKTKPREEQYNSTYRVVSVLTVLHQDWLNGKEYKCKVSNKALPAPIEKTISKAKGQPREPQVYTLPPSRDELTKNQVSLTCLVKGFYPSDIAVEWESNGQPENNYKTTPPVLDSDGSFFLYSKLTVDKSRWQQGNVFSCSVMHEALHNHYTQKSLSLSPGK
light: QIVLSQSPAILSASPGEKVTMTCRASSSVSYIHWFQQKPGSSPKPWIYATSNLASGVPVRFSGSGSGTSYSLTISRVEAEDAATYYCQQWTSNPPTFGGGTKLEIKRTVAAPSVFIFPPSDEQLKSGTASVVCLLNNFYPREAKVQWKVDNALQSGNSQESVTEQDSKDSTYSLSSTLTLSKADYEKHKVYACEVTHQGLSSPVTKSFNRGEC
notes: also called 1-85; copies: 2 + 2
In the case of B10, the Mean binding response is 23.9 RU.
